In patent US20260209316A1 (US Dept. of Health and Human Services, published 2026):
Like-named read-outs stand apart in the source and are kept apart here.

T1: full-length Sudan GP (GPFL) (Sudan virus (SUDV), UniProt Q7T9D9 33-650)
T1 construct: also called Sudan GPFL; GP(S)FL
T1 sequence: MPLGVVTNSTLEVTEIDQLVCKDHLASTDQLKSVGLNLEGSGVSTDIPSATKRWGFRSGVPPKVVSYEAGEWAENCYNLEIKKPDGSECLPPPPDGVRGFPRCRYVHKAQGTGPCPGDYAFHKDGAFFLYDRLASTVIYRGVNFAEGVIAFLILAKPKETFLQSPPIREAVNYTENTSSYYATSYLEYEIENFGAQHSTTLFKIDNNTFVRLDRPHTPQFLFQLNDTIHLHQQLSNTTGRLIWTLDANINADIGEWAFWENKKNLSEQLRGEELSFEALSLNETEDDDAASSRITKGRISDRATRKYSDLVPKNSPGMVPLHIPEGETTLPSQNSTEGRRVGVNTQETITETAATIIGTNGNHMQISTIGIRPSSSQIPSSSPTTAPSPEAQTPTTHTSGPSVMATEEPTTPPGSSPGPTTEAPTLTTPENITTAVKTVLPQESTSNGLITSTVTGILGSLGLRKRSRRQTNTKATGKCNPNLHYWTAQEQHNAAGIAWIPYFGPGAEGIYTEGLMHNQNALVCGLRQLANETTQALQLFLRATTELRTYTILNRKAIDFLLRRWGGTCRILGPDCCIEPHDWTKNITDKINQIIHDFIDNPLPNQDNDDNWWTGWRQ

T2: SUDV GP on pseudotyped lentiviral vector (Sudan virus (SUDV), UniProt Q7T9D9 33-676)
T2 sequence: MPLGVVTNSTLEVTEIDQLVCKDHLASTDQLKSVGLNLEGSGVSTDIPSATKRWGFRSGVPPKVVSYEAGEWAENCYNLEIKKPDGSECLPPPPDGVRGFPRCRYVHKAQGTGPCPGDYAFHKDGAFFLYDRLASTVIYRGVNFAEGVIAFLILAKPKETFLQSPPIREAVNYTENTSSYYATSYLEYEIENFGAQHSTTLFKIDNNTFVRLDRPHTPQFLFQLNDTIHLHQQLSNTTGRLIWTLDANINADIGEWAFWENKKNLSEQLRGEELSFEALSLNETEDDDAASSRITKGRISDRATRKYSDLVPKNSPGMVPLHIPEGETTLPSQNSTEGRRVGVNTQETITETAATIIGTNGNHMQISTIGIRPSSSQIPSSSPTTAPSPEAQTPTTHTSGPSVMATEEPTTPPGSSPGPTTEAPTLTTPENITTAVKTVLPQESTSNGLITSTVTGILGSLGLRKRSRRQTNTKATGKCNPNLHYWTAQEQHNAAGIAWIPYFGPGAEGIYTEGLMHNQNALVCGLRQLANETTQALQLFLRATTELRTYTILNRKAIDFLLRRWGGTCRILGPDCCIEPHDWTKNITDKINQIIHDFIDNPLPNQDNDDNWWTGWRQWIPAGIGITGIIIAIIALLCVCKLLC

T3: full-length Zaire GP (GPFL) (Ebola (Zaire) virus (EBOV), UniProt Q05320 33-632)
T3 construct: also called Zaire GPFL; GP(Z)FL
T3 sequence: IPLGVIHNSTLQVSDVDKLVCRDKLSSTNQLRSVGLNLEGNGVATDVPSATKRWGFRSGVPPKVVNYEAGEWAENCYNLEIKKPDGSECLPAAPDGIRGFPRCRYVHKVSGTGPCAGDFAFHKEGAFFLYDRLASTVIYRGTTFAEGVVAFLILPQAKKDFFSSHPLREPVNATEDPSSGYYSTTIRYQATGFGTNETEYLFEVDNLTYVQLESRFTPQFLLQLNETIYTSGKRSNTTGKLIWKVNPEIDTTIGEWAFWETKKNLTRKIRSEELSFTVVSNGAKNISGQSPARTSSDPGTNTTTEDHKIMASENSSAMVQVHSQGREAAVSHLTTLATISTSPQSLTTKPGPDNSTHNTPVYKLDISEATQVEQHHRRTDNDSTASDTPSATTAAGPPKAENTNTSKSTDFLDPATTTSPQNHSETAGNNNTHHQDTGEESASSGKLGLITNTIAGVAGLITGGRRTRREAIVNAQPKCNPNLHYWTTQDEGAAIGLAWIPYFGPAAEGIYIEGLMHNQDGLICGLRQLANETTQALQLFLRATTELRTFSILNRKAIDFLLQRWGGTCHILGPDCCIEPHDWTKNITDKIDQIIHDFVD

B1: antibody 503S (antibody, V domains shown)
VH: QVQLVQSGAEVKKPGASVRVSCKASGYTFTSYYMHWVRQAPGQGLEWMGQINPSGGTTRYERKFQGRITVTRDTSTSTVYLELSSLRSEDTASYFCACLRDKVTYYDLWSGVDSVWGQGTLVTVSS
VL: DIQMTQSPSSLSASVGDRVTITCRASQDISTWLAWYQQKPEKAPKSLIYAASTLETGVPSRFSGSGSGTDFTLTISSLQPEDFATYYCEQYNGFPRTFGQGTKLDIK
B2: antibody 573S (antibody, V domains shown)
VH: EVQLVESGGGLVKPGGSLRLSCAASGFTFSSYTMNWVRQAPGKGLEWVSCIRSSSSDKYYADSVKGRFTISRDNTKNSLYLQMNSLRADDTAVYYCARDLGGANNRYYFDYGMDVWGQGTTVTVSS
VL: EIVMTQSPATLSVSPGGRATLSCRASQSVYTNLAWYQQKPGQAPRLLIYDASTRATGIPARFSGSGSGTEFTLTISSLQCEDFAVYYCQHYNNWPLYTFGQGTKLEIK
B3: antibody 315L (antibody, V domains shown)
VH: QVQLQESGPGLVKPSETLSLTCTVSGGSITGNYWTWVRQPPGKGLQYIGRFDAGGKTYYNPPLKSRVSILGDKSKNQVSLNLTSVTVADTGVYYCAREQWGQLLSGSFDVWGRGVLVTVSS
VL: SYELTQPPSVSVSPGQTARITCSGDALPDYYAHWYQQKSGQAPMLVIYKDTERPSGIPERFSGSSSGTTVSLTISGVQAEDEADYYCQSGDSSGNHWVFGGGTRLTVL
B4: antibody 102S (antibody, V domains shown)
VH: EVQLVESGGGLVQPGGSLRLSCSASGFTFHSYDMNWARQAPGKGLEWVSEISSSGQSKNYADSVRGRFTISRDNAKNSLYLQINSLRSEDTAVYYCARVGFVAKFGSDFSITHGTYYLDYWGQGTLVTVSS
VL: QLVLTQSPATLSLSPGERATLSCRASQSVSNYLAWYQQKPGQAPRLLIYDASNRAPGVPARFSGSGSGTDFSLTISSLEPEDFAVYYCLQRSNWPPWTFGQGTKVEIK
B5: antibody 294S (antibody, V domains shown)
VH: QVQLQESGPGLVKPSQTLSLTCTVSGGSISSGGYHWSWIRQHPGKGLEWIGNIYYNGRTYYNPSLKSRVTISVDTSENEFSLKLSSVTAADTAVYYCARDRRRPRIGHDYGMDVWGQGTKVIVSS
VL: DIQMTQSPSSLSASVGDRVTISCRASQSISNFLNWYQQKPGQAPKLLIYTASNLQSGVPSRFSGSGSGTDFTLTISSLQPEDFATYYCQQIYNTGMYSFGQGTKLEIKR
B6: antibody 578S (antibody, V domains shown)
VH: EVQLVESGGGVVQPGRSLRLSCAASGFTFSSYELHWVRQAPGKGLEWVAVISYDGSSKYYADSLKGRFTISRDNSKNTLSLQMNSLRAEDTAMYYCVRQSEAYCSDGRCDWRRALDIWGQGTMVTVSP
VL: DIQMTQSPSSLSASVGDRVTITCQASQDIKNYLNWYQQKPGKAPKLLIYDVSKLETGVPSRFSGSGSGTDFSFTISSLQPEDIATYYCQQYDNLPSYTFGQGTKLEIK
B7: antibody 354S (antibody, V domains shown)
VH: QVQLVQSGAEVKKPGASVKVSCKASGYSFASYYIHWVRQAPGQGLEWMGIINPSGGTTSYAQKFQGRVTMTRDTSTSTVYMELSSLGSEDTAVYYCARIVDRVTIYLNGVDNYWGQGTLVTVSS
VL: EIVMTQSPATLSVSPGERVTLSCRASQSVSSNLAWFQQTPGQAPRLLIYGASTRASGVPARFSGSGSGTEFTLTISSLQSEDFAVYYCLQYNNWPPGWKYGFGQGTKLEIK
B8: antibody 233S (antibody, V domains shown)
VH: EVQLVESGGGLGQPGGSLRLSCAASGFKFKIFGMNWVRQAPGKGLEWVSYISSRSSIIYYADSVKGRFTISRDDATNSLFLQMNSLRDEDTAMYYCVRDYNLIDFVWGSLFDYWGQGILVTVSS
VL: AIRMTQSPSSLSASTGDSVTITCRASQNIASYLAWYQQIPGKAPKLLIYVASTLQSGVPSRFSGSGSGTDFTLTISSLQSEDFATYYCQQYYRYPPTFGQGTKVEIK
B9: antibody 314L (antibody, V domains shown)
VH: EERLVESGGGLVQPGGSLRLSCAASGFTFGDYAMHWVRQVPGKSLEWLSGISWSGYTTYSADSVKGRFTISRDNAKNSLYLQMNRLRPEDTGLYYCVTLIGAIGIKDSLDVWGRGVLVTVSS
VL: EVVFTQPHSVSGSPGQMVTISCTRSSGTIDNSYVYWHQQRPGSAPTTVIYNDDQRPSGVPDRFSGSIDSSSNSASLTISGLKSEDEADYYCQSYDSSGWVFGGGTRLTVL
B10: antibody 241S (antibody, V domains shown)
VH: QVQLVQSGSELKKPGASVKVSCKASGYTFTSYTVNWVRQAPGQGLEWMGWINTNTGNPTYAQGFTGRFVFSSDTSVSTAYLQISDLKAEDTAMYYCARHVAYDLWSGHTVTFDHWGQGTLVTVSS
VL: QSALTQPPSASGSPGQSVTISCTGTSSDVGAYNYVSWYQQHPGKAPKLIIYEVTKRPSGVPDRFSGSKSGNTASLTVSGLQAEDEADYYCSSKAGGKTYVFGTGTKVTVL
B11: antibody 523S (antibody, V domains shown)
VH: QVQLVQSGAELKKPGASVKVSCKASGYTFSDHYVHWVRQAPGQGLEWMGRINPNSGGTNYAQRFLGRVTMTRDASISTAYLDLSSLRSDDTAVYYCARSSSSWSGHYYYYMDVWGKGTTVTVSS
VL: QSVLTQPPSVSAAPGQRVTISCSGSTSNIASNFVSWYQQLPGTAPKLLIYDNHKRPSGIPDRFSGSKSGTSATLGITGLQTGDEADYYCGTWDSSLSAGVFGGGTKVTVLG
B12: antibody 541S (antibody, V domains shown)
VH: QVQLVQSGAEVKKPGASVKVSCKASGYTFTNYAITWVRQAPGQGLEWMGWISAFNGQINYAQKFQGRVAMTTDTSTSTAYMELRSLRSDDTAVYYCARAPPMWFSGAKFDYWGQGTLVTVSS
VL: QSVLTQPPSVSGTPGQRVTISCSGSSSNIGSNTVNWYQQLPGTAPKLLIYSNDQRPSGVPDRFSGSKSGTSASLAISGLRSEDEADYYCAAWDETLRRVFGGGTRLTVL

Assays:
[1] = target: T1, full-length Sudan GP (GPFL); test: ELISA on coated GP
[2] = target: T2, SUDV GP on pseudotyped lentiviral vector; test: cell-based or functional assay
[3] = target: T1, full-length Sudan GP (GPFL); test: ELISA on coated GP; remark: listed apart in the source
[4] = target: T3, full-length Zaire GP (GPFL); test: ELISA on coated GP
[5] = target: T2, SUDV GP on pseudotyped lentiviral vector; test: cell-based or functional assay; remark: listed apart in the source
[6] = target: T1, full-length Sudan GP (GPFL); test: ELISA on coated GP; remark: listed apart in the source
[7] = target: T2, SUDV GP on pseudotyped lentiviral vector; test: cell-based or functional assay; remark: listed apart in the source

Binder	EC50 [1] [µg/mL]	IC50, microneutralization of GP-pseudotyped lentiviral vector on HEK293 cells [2] [µg/mL]	other results
B1	0.64	0.102	–
B2	0.221	0.188	–
B3	–	–	EC50 [3]: 0.01 µg/mL; EC50 [4]: 1.8 µg/mL; IC50, microneutralization of GP-pseudotyped lentiviral vector on HEK293 cells [5]: > 10 µg/mL
B4	–	–	EC50 [6]: 0.09 µg/mL; IC50, microneutralization of GP-pseudotyped lentiviral vector on HEK293 cells [7]: 0.88 µg/mL
B5	0.0258	0.0192	–
B6	–	–	EC50 [6]: 0.18 µg/mL; IC50, microneutralization of GP-pseudotyped lentiviral vector on HEK293 cells [7]: 1.09 µg/mL
B7	0.0613	0.03	–
B8	0.133	0.167	–
B9	–	–	EC50 [3]: 1.05 µg/mL; EC50 [4]: 1.73 µg/mL
B10	0.232	0.0275	–
B11	0.371	0.108	–
B12	0.368	0.478	–
